Laboratory results: patent US12006343B2, “C4BP-based compounds for treating immunological diseases” (FUNDACIO INSTITUT D'INVESTIGACIO BIOMEDICA DE BELLVITGE …, priority 2017, dated 2024)
“Also recorded” adds a separate entry of the source.

Tests used:
[1] = mouse, in vivo, cited from earlier work
lupus-prone NZBWF1 mice [2] = assay: Kaplan-Meier survival in spontaneous SLE mouse model NZBWF1; type: in vivo; conditions: for mice still alive at the end of the study: 330 days
Experimental: NZBWF1/J mice develop an autoimmune disease resembling human systemic lupus erythematosus. […] The animals were maintained under standard laboratory conditions, at 20-24° C. and 40-70% relative humidity, with 12-hour fluorescent light/12-hour dark cycle. They were feed standard diet and tap water ad libitum.
(§1) Both IP and SC administrations for C4BP(β−), CYP and PBS (150 μl/each) were performed with a 25-gauge needle during 30 s, after rinsing the skin with 70% ethanol.
(§2) The detailed administration schedule was as follows (Table 5):
(§3) One-way analysis of variance (ANOVA) with post hoc tests was performed to compare proteinuria throughout the follow up. Survival data were analyzed using Kaplan-Meier curves and long-rank test. P value<0.05 was considered significant. Data are expressed as mean±SEM.

lupus-prone NZBWF1 mice [3] = assay: Renal function (24 h proteinuria) in spontaneous SLE mouse model NZBWF1; type: in vivo; conditions: for delay in the onset of proteinuria: vs PBS-treated control
Experimental: Mice, Study Design and Follow Up
NZB/NZW F1 or NZBWF1/J (Charles-River), NZB/NZW F1 (Jackson, code 100008) are a hybrid cross between NZB/B1NJ (Jackson, code 000684) Female x NZW/LacJ (Jackson, code 001058) Male. NZBWF1/J mice develop an autoimmune disease resembling human systemic lupus erythematosus. The inventors used 58 females (30-35 g/each) aged 15 weeks for the study (4-5 animals per cage). The animals were maintained under standard laboratory conditions, at 20-24° C. and 40-70% relative humidity, with 12-hour fluorescent light/12-hour dark cycle. They were feed standard diet and tap water ad libitum. […]
Dose Selection and Administration.
The selection of the C4BP(β−) dose for in vivo administration was based in previous studies employing complement-related proteins in immune-inflammatory pathologies. Blom et al. (Blom et al. 2009. Ann. Rheum. Dis., 68:136-42) used the C4BP isoform lacking β chain in experimental collagen-induced arthritis (CIA) and collagen antibody-induced arthritis (CAIA) mice to investigate the influence of complement activity in the treatment of rheumatoid arthritis. These authors administered intraperitoneally C4BP (2 mg/mouse) using a multiple dose-regimen once every two days in preventive and therapeutic experiments. Thus, in the current study, C4BP(β−) was administered both intraperitoneally (IP) and subcutaneously (SC) into NZBWF1 mice for three months (between six and nine months of age).
Alperovich et al (Alperovich et al. 2007. Lupus, 16:18-24) administered cyclophosphamide (CYP) to NZBWF1 mice at 50 mg/kg IP every 10 days.
as §1, §2
Body weight was determined twice monthly from the beginning to the end of follow-up. Mice were placed in metabolic cages to collect 24 h urine specimens before the onset of treatment and monthly thereafter. Blood was obtained from the tail vein at monthly intervals.
Renal Function Analysis: Proteinuria
24 h urinary protein was determined by pyrogallol red (Olympum Autoanalyzer AU400, Hamburg, Germany) in the Veterinary Clinical Biochemistry Laboratory from Universitat Autonoma de Barcelona.
as §3

[4] = test system: human monocyte-derived DCs; assay: Immunomodulatory activity over human monocyte-derived DCs: CD83/CD86 surface expression by flow cytometry after LPS maturation; type: cell-based; conditions: FIG. 4
Experimental: In Vitro Functional Assessment of the Immunomodulatory Activity of Full-Length C4BP(β−) and C4BP(β−) Variants Over DCs
The inventors used for the in vitro study both C4BP(β+) (WT) and recombinant C4BP(β−) isoforms, and the above-referred mutants or variants: Mutant 1 and Mutant 2. C4BP(β+) isoforms refer to the major C4BP α7β1 plus the minor C4BP α6β1 isoforms (both in complex with ProS) purified from pooled human plasma.
RPMI 1640 was supplemented with 100 μg/ml of streptomycin, 100 IU/ml of penicillin, 2 mM L-glutamine (all from Invitrogen, Carlsbad, CA) and 10% heat-inactivated fetal bovine serum (Linus, Cultek, Spain) (complete medium), unless otherwise stated.
Peripheral blood mononuclear cells (PBMCs) were obtained from buffy coat preparations collected from healthy donors from the Blood and Tissue Bank (Barcelona, Spain) after Ficoll-Paque™ density centrifugation (GE Healthcare Bio-Sciences AB; Uppsala, Sweden). For surface phenotype determination, monocytes were plated at 1×10^6 cells/ml in 60 mm culture plates (Corning, Spain), in RPMI 1640 medium without serum, and allowed to adhere for 2 h at 37° C. in 5% CO2. The non-adherent cells were removed by washing in PBS.
Monocyte-derived DCs were generated supplementing the monocyte cultures with complete RPMI 1640 medium plus GM-CSF (800 UI/ml) and IL-4 (500 UI/ml) (both from Gentaur, Kampenhout, Belgium) at day 0 and day 3 of culture. For DC maturation, at day 5 iDCs were further stimulated for 48 h with 5 μg/ml LPS (Escherichia coli 055.B5, Sigma L2880, Copenhagen, Denmark).
Staining using the fluorescent dye 7-amino-actinomycin D (7-AAD) (BD Pharmigen) and flow cytometry analysis was employed to assess the viability status of C4BP-treated and untreated DCs.
Cell surface phenotypes were analyzed by flow cytometry using the following mAbs: FITC-conjugated anti-CD83 (HB15a) and PE-conjugated anti-CD86 (HA5.2B7) (all from Beckman-Coulter). The respective isotype controls FITC-conjugated anti-IgG2b (H2) and PE-conjugated anti-IgG2b (H2), were from the same commercial sources. After washing with PBS, cells were subsequently stained with 3 μl mAb/10^5 cells in 100 μl of FACS buffer (PBS containing 1% BSA and 0.1% sodium azide) for 20 min at room temperature. To exclude dead cells and debris, DCs were gated according to forward scatter (FSC) and side scatter (SSC) parameters. Stained cells were analyzed using a FACSCalibur (Becton Dickinson, Franklin Lakes, NJ) equipped with CellQuestPro software (Becton Dickinson).
In Vitro Functional Assessment of C4BP(β−) Immunomodulatory Activity Over DCs
The inventors used for the in vitro study both C4BP(+) and C4BP(β−) isoforms. C4BP(3+) isoforms refer to the major C4BP α7β1 plus the minor C4BP α6β1 isoforms (both in complex with ProS) purified from pooled human plasma, as previously described (Dahlbäck B. 1983. Biochem J., 209:847-56).

[5] = IP, 5 μg/mouse once every two weeks
[6] = IP, 50 μg/mouse once every two weeks
[7] = IP, 500 μg/mouse once every two weeks

B1: C4BP: human C4b-binding protein as used by Blom et al. 2009, intraperitoneally in mice (protein, UniProt P04003 49-597; P20851 18-252, looked up)
C4b-binding protein alpha …: NCGPPPTLSFAAPMDITLTETRFKTGTTLKYTCLPGYVRSHSTQTLTCNSDGEWVYNTFCIYKRCRHPGELRNGQVEIKTDLSFGSQIEFSCSEGFFLIGSTTSRCEVQDRGVGWSHPLPQCEIVKCKPPPDIRNGRHSGEENFYAYGFSVTYSCDPRFSLLGHASISCTVENETIGVWRPSPPTCEKITCRKPDVSHGEMVSGFGPIYNYKDTIVFKCQKGFVLRGSSVIHCDADSKWNPSPPACEPNSCINLPDIPHASWETYPRPTKEDVYVVGTVLRYRCHPGYKPTTDEPTTVICQKNLRWTPYQGCEALCCPEPKLNNGEITQHRKSRPANHCVYFYGDEISFSCHETSRFSAICQGDGTWSPRTPSCGDICNFPPKIAHGHYKQSSSYSFFKEEIIYECDKGYILVGQAKLSCSYSHWSAPAPQCKALCRKPELVNGRLSVDKDQYVEPENVTIQCDSGYGVVGPQSITCSGNRTWYPEVPKCEWETPEGCEQVLTGKRLMQCLPNPEDVKMALEVYKLSLEIEQLELQRDSARQSTLDKEL
C4b-binding protein beta chain: SDAEHCPELPPVDNSIFVAKEVEGQILGTYVCIKGYHLVGKKTLFCNASKEWDNTTTECRLGHCPDPVLVNGEFSSSGPVNVSDKITFMCNDHYILKGSNRSQCLEDHTWAPPFPICKSRDCDPPGNPVHGYFEGNNFTLGSTISYYCEDRYYLVGVQEQQCVDGEWSSALPVCKLIQEAPKPECEKALLAFQESKNLCEAMENFMQQLKESGMTMEELKYSLELKKAELKAKLL
For B1, the “initial amount remaining in the circulation” value ([1]; ip) is listed as 3% and the “clearance from the circulation” value [1] is listed as “cleared fast”.

B2: rC4BP(β−): recombinant C4BP isoform lacking the β-chain, transiently produced in HEK293 cells (Expi293 cells) (protein, UniProt P04003 49-597, looked up)
C4b-binding protein alpha …: NCGPPPTLSFAAPMDITLTETRFKTGTTLKYTCLPGYVRSHSTQTLTCNSDGEWVYNTFCIYKRCRHPGELRNGQVEIKTDLSFGSQIEFSCSEGFFLIGSTTSRCEVQDRGVGWSHPLPQCEIVKCKPPPDIRNGRHSGEENFYAYGFSVTYSCDPRFSLLGHASISCTVENETIGVWRPSPPTCEKITCRKPDVSHGEMVSGFGPIYNYKDTIVFKCQKGFVLRGSSVIHCDADSKWNPSPPACEPNSCINLPDIPHASWETYPRPTKEDVYVVGTVLRYRCHPGYKPTTDEPTTVICQKNLRWTPYQGCEALCCPEPKLNNGEITQHRKSRPANHCVYFYGDEISFSCHETSRFSAICQGDGTWSPRTPSCGDICNFPPKIAHGHYKQSSSYSFFKEEIIYECDKGYILVGQAKLSCSYSHWSAPAPQCKALCRKPELVNGRLSVDKDQYVEPENVTIQCDSGYGVVGPQSITCSGNRTWYPEVPKCEWETPEGCEQVLTGKRLMQCLPNPEDVKMALEVYKLSLEIEQLELQRDSARQSTLDKEL
modifications: alpha-chain-only isoform, recombinant
With B2 the survival (lupus-prone NZBWF1 mice [2]; IP, 5 μg once every two weeks, all mice died at end of study (330 days)) was “performed similarly to the control PBS-treated group”, the “mice still alive at the end of the study” value (lupus-prone NZBWF1 mice [2]; IP, 50 μg once every two weeks) was 20-30% and the “mice still alive at the end of the study” value (lupus-prone NZBWF1 mice [2]; IP, 500 μg once every two weeks) was 20-30%. The “mice active at the end of the study” value (lupus-prone NZBWF1 mice [2]; SC route, all treatment groups) was “maintained mice active at the end of the study”, the “mice alive at 330 days” value (lupus-prone NZBWF1 mice [2]; SC, 50 μg once every two weeks) was “more than 60%” and the “survival respect to control PBS-treated mice” value (lupus-prone NZBWF1 mice [2]; SC, 50 μg once every two weeks) was “appreciably delay their survival; also recorded: best survival rate”. The “progress of the disease” value (lupus-prone NZBWF1 mice [2]; SC, 50 μg, NZBWF1 mice) was “substantial slowing of the progress of the disease”, the “statistical analysis of Kaplan-Meier survival curves vs control PBS-treated group” value (lupus-prone NZBWF1 mice [2]; any of the rC4BP(β−)-treated groups, n=6) was “no statistically significant differences” and the “survival, subcutaneous route compared with intraperitoneal route” value (lupus-prone NZBWF1 mice [2]; doses of 5 μg and 50 μg, FIG. 6) was “higher”. The “proteinuria by week 37” value (lupus-prone NZBWF1 mice [3]; [5]) was “severe proteinuria indistinguishable from the PBS-treated control group”, the “delay in the onset of proteinuria” value (lupus-prone NZBWF1 mice [3]; [5]) was 2 week and the “proteinuria by week 37” value (lupus-prone NZBWF1 mice [3]; [6]) was “severe proteinuria indistinguishable from the PBS-treated control group”. The “delay in the onset of proteinuria” value (lupus-prone NZBWF1 mice [3]; [6]) was 2 week, the “proteinuria level at the end of the study (week 37)” value (lupus-prone NZBWF1 mice [3]; [7]) was ~300 mg protein/kg and the “delay in the onset of proteinuria” value (lupus-prone NZBWF1 mice [3]; [7]) was 6 weeks. For the same molecule, the “proteinuria by week 37 (end of the study)” value (lupus-prone NZBWF1 mice [3]; SC, 50 μg once every two weeks) was < 200 mg/kg, the “onset / development of proteinuria” value (lupus-prone NZBWF1 mice [3]; mouse, in vivo, sc) was “significantly delayed; also recorded: strongest attenuation of proteinuria development” and the “efficacy, SC 50 μg/mouse vs IP 500 μg/mouse” value (lupus-prone NZBWF1 mice [3]; same regimen, SLE mouse model) was “more effective than the intraperitoneal administration of 500 μg/mouse”. For the same molecule, the “semi-mature, anti-inflammatory phenotype conferred to LPS-matured MoDCs (immunomodulatory activity)” value ([4]; MoDCs pre-incubated with 5 μg/ml protein, LPS challenge) was “able to confer an analogous semi-mature, anti-inflammatory phenotype” and the “CD83 and CD86 surface marker expression” value ([4]; human MoDCs, 5 μg/ml C4BP isoform, LPS 5 μg/ml) was “restrain similarly CD83 and CD86 surface marker expression”.
